Experimental data: the supplement of paper PMC7125110
± gives the standard error. This sample holds only a part of the variants without activity.

B1: glmS ribozyme (parent)
chain: AUAAAAGCGCCAGAACUACAGAAAUGUAGUUGACGAGGAGGAGGUUUAUCGAAUUUUCGGCGGAUGCCUCCAAA

Experiments:
Conditions in all cases: with glucosamine-6-phosphate
[1] = variants of: B1; assay: self-cleavage kobs at 40 uM GlcN6P; higher = faster cleavage; RNA array
Outline: (§1)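 Glucosamine-6-phosphate, from 40 μM to 10 mM in HEPES/KCl/Mg(OAc)2 buffer, was flowed over sequenced MiSeq chips carrying barcoded ribozyme variants transcribed in situ by E. coli RNA polymerase. A hybridised Cy3 probe tracked the variants at 37 °C as tiles were imaged over ~14 h. kobs, kcat and KM were obtained by fitting normalised per-tile medians to exponential decays and then applying weighted Michaelis–Menten fits across concentrations.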

[2] = variants of: B1; assay: self-cleavage kobs at 640 uM GlcN6P; higher = faster cleavage; RNA array
Outline: as §1

[3] = variants of: B1; assay: self-cleavage kobs at 2500 uM GlcN6P; higher = faster cleavage; RNA array
Outline: as §1

[4] = variants of: B1; assay: self-cleavage kobs at 10000 uM GlcN6P; higher = faster cleavage; RNA array
Outline: as §1

[5] = variants of: B1; assay: self-cleavage kobs at 160 uM GlcN6P; higher = faster cleavage; RNA array
Outline: as §1

Variant | self-cleavage kobs at 40 uM GlcN6P [1] [s⁻¹] | self-cleavage kobs at 640 uM GlcN6P [2] [s⁻¹] | self-cleavage kobs at 2500 uM GlcN6P [3] [s⁻¹] | self-cleavage kobs at 10000 uM GlcN6P [4] [s⁻¹] | self-cleavage kobs at 160 uM GlcN6P [5] [s⁻¹]
A33G C34U C68U | < 1e-05 | – | – | – | –
G32C U69G | 0.000189 ± 3.1e-05 | 0.000383 ± 8e-05 | 0.000111 ± 2.5e-05 | 9.57e-05 ± 1.1e-05 | –
G32U C34U A42C | < 1e-05 | – | < 1e-05 | – | –
U30G A33U G60A | < 1e-05 | < 1e-05 | < 1e-05 | – | –
U30C G32C G44U C50U | < 1e-05 | – | – | < 1e-05 | –
A33C C68A | < 1e-05 | < 1e-05 | < 1e-05 | < 1e-05 | –
A33U A36G G41C A53G | < 1e-05 | – | – | < 1e-05 | –
G32U A36G G59A | < 1e-05 | – | < 1e-05 | < 1e-05 | –
A33U A53U C61A U69A | < 1e-05 | – | – | – | –
A33U A36C C58G U69C | 4.07e-05 ± 2e-05 | – | – | – | 7.32e-05 ± 1.9e-05
U31G G44U C61U | < 1e-05 | – | – | < 1e-05 | –
G32U A52C | < 1e-05 | < 1e-05 | – | < 1e-05 | –
G32C G38C | < 1e-05 | < 1e-05 | – | – | < 1e-05
A33U G40A G62C | < 1e-05 | – | – | – | –
G32U A39U G60A C67U | < 1e-05 | – | – | < 1e-05 | –
A33U G44U A52U | < 1e-05 | < 1e-05 | < 1e-05 | – | < 1e-05
U31C U49A A64U | < 1e-05 | – | – | < 1e-05 | –
U31C G51A | < 1e-05 | < 1e-05 | < 1e-05 | < 1e-05 | –
U30G G62U | < 1e-05 | < 1e-05 | – | < 1e-05 | –
G32U U56A C61G C67A | 7.99e-05 ± 3e-05 | – | – | – | –
G32U G43U G44U G60A | < 1e-05 | < 1e-05 | < 1e-05 | – | –
U31G U54G | 0.000298 ± 5.4e-05 | 0.00263 ± 0.00063 | 0.00445 ± 0.00094 | 0.0119 ± 0.0031 | 0.000493 ± 8.5e-05
U31G U54A | 0.000582 ± 0.00015 | – | 0.00634 ± 0.0018 | 0.00833 ± 0.002 | –
U31A G59C | < 1e-05 | < 1e-05 | < 1e-05 | < 1e-05 | < 1e-05
